# Measured values as given in patent US20080194485.
# B1: recombinant PRCP51 (recombinant human prolylcarboxypeptidase, predicted molecular mass 51 kDa) (protein)
# chain: KNYSVLYFQQKVDHFGFNTVKTFNQRYLVADKYWKKNGGSILFYTGNEGDIIWFCNNTGFMWDVAEELKAMLVFAEHRYYGESLPFGDNSFKDSRHLNFLTSEQALADFAELIKHLKRTIPGAENQPVIAIGGSYGGMLAAWFRMKYPHMVVGALAASAPIWQFEDLVPCGVFMKIVTTDFRKSGPHCSESIHRSWDAINRLSNTGSGLQWLTGALHLCSPLTSQDIQHLKDWISETWVNLAMVDYPYASNFLQPLPAWPIKVVCQYLKNPNVSDSLLLQNIFQALNVYYNYSGQVKCLNISETATSSLGTLGWSYQACTEVVMPFCTNGVDDMFEPHSWNLKELSDDCFQQWGVRPRPSWITTMYGGKNISSHTNIVFSNGELDPWSGGGVTKDITDTLVAVTISEGAHHLDLRTKNALDPMSVLLARSLEVRHMKNWIRDFYDSAGKQH
# Biological target: prekallikrein (PK), P03952
# Sequence (P03952 20-638): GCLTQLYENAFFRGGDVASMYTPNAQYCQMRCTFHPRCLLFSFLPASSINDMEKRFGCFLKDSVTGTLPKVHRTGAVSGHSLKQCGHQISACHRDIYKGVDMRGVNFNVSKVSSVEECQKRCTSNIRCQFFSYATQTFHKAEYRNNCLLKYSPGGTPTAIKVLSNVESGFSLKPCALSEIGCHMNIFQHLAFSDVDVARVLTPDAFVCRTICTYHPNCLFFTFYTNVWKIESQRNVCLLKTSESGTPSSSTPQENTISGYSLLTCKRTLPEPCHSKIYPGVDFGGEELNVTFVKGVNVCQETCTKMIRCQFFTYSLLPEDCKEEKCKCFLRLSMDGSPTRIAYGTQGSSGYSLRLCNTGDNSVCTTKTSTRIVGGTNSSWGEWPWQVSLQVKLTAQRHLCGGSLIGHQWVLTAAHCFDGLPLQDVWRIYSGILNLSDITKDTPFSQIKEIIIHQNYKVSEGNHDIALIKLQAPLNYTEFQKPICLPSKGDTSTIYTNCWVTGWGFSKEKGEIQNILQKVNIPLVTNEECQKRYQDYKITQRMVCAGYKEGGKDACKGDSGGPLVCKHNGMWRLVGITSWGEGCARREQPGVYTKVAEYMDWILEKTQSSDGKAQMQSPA
protein,measurement,value
B1,Km of prekallikrein activation,"Recombinant PRCP51 activates PK with a Km and Vmax of 9 nM and 0.2 min^-1, respectively"
same,Vmax of prekallikrein activation,"Recombinant PRCP51 activates PK with a Km and Vmax of 9 nM and 0.2 min^-1, respectively"
